# The Immune Epitope Database (IEDB)
# Columns and labels:
# HLA-A*29:02 = assay: IEDB peptide-MHC binding, purified MHC/competitive/radioactivity; filed as Kd, often an IC50 or EC50 that approximates it; ≥ and ≤ were set here for values at or beyond the usual limits of such assays
# HLA-A*30:02 = assay: as above
# HLA-A*26:01 = assay: as above
# HLA-A*23:01 = assay: as above
# HLA-A*24:02 = assay: as above
# HLA-A*01:01 = assay: as above
# HLA-B*40:01 = assay: as above; conditions: source organism: Dengue virus 2 Jamaica/1409/1983
# HLA-B*15:01 [1] = assay: IEDB peptide-MHC binding, purified MHC/competitive/fluorescence; filed as Kd, often an IC50 or EC50 that approximates it; ≥ and ≤ were set here for values at or beyond the usual limits of such assays
# HLA-A*30:01 = assay: IEDB peptide-MHC binding, purified MHC/competitive/radioactivity; filed as Kd, often an IC50 or EC50 that approximates it; ≥ and ≤ were set here for values at or beyond the usual limits of such assays
# HLA-B*15:01 [2] = assay: as above
# HLA-A*68:01 = assay: as above
# HLA-A*03:01 = assay: as above
# HLA-A*11:01 = assay: as above
# HLA-B*58:01 = assay: IEDB peptide-MHC binding, purified MHC/direct/fluorescence; filed as Kd, often an IC50 or EC50 that approximates it; ≥ and ≤ were set here for values at or beyond the usual limits of such assays; conditions: source organism: Giardia lamblia ATCC 50803
# HLA-B*57:01 = assay: as above; conditions: source organism: Giardia lamblia ATCC 50803
# HLA-A*33:01 = assay: IEDB peptide-MHC binding, purified MHC/competitive/radioactivity; filed as Kd, often an IC50 or EC50 that approximates it; ≥ and ≤ were set here for values at or beyond the usual limits of such assays; conditions: source organism: Vaccinia virus WR
# HLA-A*31:01 = assay: as above; conditions: source organism: Vaccinia virus WR
# HLA-B*46:01 = assay: IEDB peptide-MHC binding, purified MHC/competitive/fluorescence; filed as Kd, often an IC50 or EC50 that approximates it; ≥ and ≤ were set here for values at or beyond the usual limits of such assays
# HLA-B*44:02 = assay: IEDB peptide-MHC binding, purified MHC/competitive/radioactivity; filed as Kd, often an IC50 or EC50 that approximates it; ≥ and ≤ were set here for values at or beyond the usual limits of such assays; conditions: source organism: Dengue virus 2 Jamaica/1409/1983
# HLA-B*44:03 = assay: as above; conditions: source organism: Dengue virus 2 Jamaica/1409/1983
# HLA-B*53:01 = assay: as above
# [3] = source organism: SARS coronavirus Tor2
# [4] = source organism: Dengue virus 3 Martinique/1243/1999
# [5] = source organism: Vaccinia virus WR
# [6] = source organism: Dengue virus 2 Jamaica/1409/1983
# [7] = source organism: Lymphocytic choriomeningitis virus (strain Armstrong)
# [8] = source organism: Mammarenavirus lassaense
# [9] = source organism: Mammarenavirus machupoense
# [10] = source organism: Influenza A virus
# [11] = source organism: Dengue virus 4 Philippines/H241/1956
# [12] = source organism: Lassa virus Josiah
# [13] = source organism: Mammarenavirus brazilense
# [14] = source organism: Mammarenavirus juninense
sequence,measurement,setting,value
TVDSSQGSEY,Kd,HLA-A*29:02; [3],823 nM
same,Kd,HLA-A*30:02; [3],414 nM
same,Kd,HLA-A*26:01; [3],1070 nM
same,Kd,HLA-A*23:01; [3],≥ 70000 nM
same,Kd,HLA-A*24:02; [3],≥ 70300 nM
same,Kd,HLA-A*01:01; [3],15.7 nM
AEHTGREIV,Kd,HLA-B*40:01,62.4 nM
GEHKKLAEAI,Kd,HLA-B*40:01,53.7 nM
STLRTLKPY,Kd,HLA-B*15:01 [1]; source organism: Bacillus cereus G9241,148 nM
ISQHNHRPGY,Kd,HLA-A*30:02; [4],99.8 nM
same,Kd,HLA-A*30:01; [4],12.2 nM
same,Kd,HLA-A*01:01; [4],15000 nM
FYLCFLAFLL,Kd,HLA-A*29:02; [3],76.7 nM
same,Kd,HLA-A*30:02; [3],≥ 85700 nM
same,Kd,HLA-A*26:01; [3],≥ 69700 nM
same,Kd,HLA-A*23:01; [3],0.0676 nM
same,Kd,HLA-A*24:02; [3],13.6 nM
same,Kd,HLA-A*01:01; [3],≥ 52500 nM
GTIMVSEHF,Kd,HLA-B*15:01 [2]; [5],57.4 nM
VTFKNPHAK,Kd,HLA-A*30:01; [6],278 nM
same,Kd,HLA-A*68:01; [6],133 nM
same,Kd,HLA-A*03:01; [6],9.59 nM
same,Kd,HLA-A*11:01; [6],137 nM
FQPQNGQFI,Kd,HLA-A*29:02; [7],≥ 78900 nM
same,Kd,HLA-A*30:02; [7],≥ 76900 nM
same,Kd,HLA-A*26:01; [7],≥ 77900 nM
same,Kd,HLA-A*23:01; [7],≥ 20400 nM
same,Kd,HLA-A*24:02; [7],1260 nM
same,Kd,HLA-A*01:01; [7],≥ 78100 nM
SARGLCNTW,Kd,HLA-B*58:01,56.5 nM
same,Kd,HLA-B*57:01,112 nM
GVPLLAIGCY,Kd,HLA-A*30:02; [6],3350 nM
same,Kd,HLA-A*26:01; [6],128 nM
AGFVAGLTY,Kd,HLA-A*29:02; [8],130 nM
same,Kd,HLA-A*30:02; [8],520 nM
same,Kd,HLA-A*26:01; [8],≥ 77900 nM
same,Kd,HLA-A*23:01; [8],8020 nM
same,Kd,HLA-A*24:02; [8],≥ 52600 nM
same,Kd,HLA-A*01:01; [8],≥ 35300 nM
VDICFWSTI,Kd,HLA-A*29:02; [9],≥ 78900 nM
same,Kd,HLA-A*30:02; [9],5110 nM
same,Kd,HLA-A*26:01; [9],≥ 77900 nM
same,Kd,HLA-A*23:01; [9],12500 nM
same,Kd,HLA-A*24:02; [9],1070 nM
same,Kd,HLA-A*01:01; [9],1760 nM
VSENTGMGMY,Kd,HLA-A*29:02; [5],34 nM
same,Kd,HLA-A*68:01; [5],≥ 36900 nM
same,Kd,HLA-A*03:01; [5],1620 nM
same,Kd,HLA-A*33:01,≥ 24200 nM
same,Kd,HLA-A*31:01,13400 nM
same,Kd,HLA-A*11:01; [5],2360 nM
FQNVNKITY,Kd,HLA-B*15:01 [1]; [10],154 nM
same,Kd,HLA-B*46:01; [10],3000 nM
HEWMTTEDM,Kd,HLA-B*44:02,1960 nM
same,Kd,HLA-B*44:03,1530 nM
same,Kd,HLA-B*40:01,381 nM
SEIPNLDII,Kd,HLA-B*44:03,60.4 nM
same,Kd,HLA-B*40:01,112 nM
TPRMCTREEF,Kd,HLA-B*53:01; [6],1300 nM
YIGGTTQAF,Kd,HLA-B*46:01; source organism: Francisella tularensis subsp. tularensis FSC198,4420 nM
FLCDDTITY,Kd,HLA-B*15:01 [1]; source organism: West Nile virus,298 nM
KFADDLNQM,Kd,HLA-A*29:02; [3],124 nM
same,Kd,HLA-A*30:02; [3],≥ 30000 nM
same,Kd,HLA-A*26:01; [3],≥ 44300 nM
same,Kd,HLA-A*23:01; [3],659 nM
same,Kd,HLA-A*24:02; [3],1500 nM
same,Kd,HLA-A*01:01; [3],≥ 78100 nM
LAPFNFLVF,Kd,HLA-B*15:01 [2]; [5],135 nM
FPQSNSPIE,Kd,HLA-B*53:01; [11],243 nM
LIIKLLLPG,Kd,HLA-B*15:01 [2]; [5],1120 nM
EGKDTPGGY,Kd,HLA-A*29:02; [12],≥ 78900 nM
same,Kd,HLA-A*30:02; [12],≥ 76900 nM
same,Kd,HLA-A*26:01; [12],≥ 77900 nM
same,Kd,HLA-A*23:01; [12],≥ 63200 nM
same,Kd,HLA-A*24:02; [12],≥ 77500 nM
same,Kd,HLA-A*01:01; [12],≥ 37900 nM
NGVVTTSGTY,Kd,HLA-A*30:02; source organism: Dengue virus 1 Brazil/97-11/1997,694 nM
LQRKHGGML,Kd,HLA-B*15:01 [2]; [4],31.2 nM
EISSTFNRF,Kd,HLA-B*15:01 [2]; [5],131 nM
EYGFTRRFKF,Kd,HLA-A*29:02; [13],133 nM
same,Kd,HLA-A*23:01; [13],45.3 nM
same,Kd,HLA-A*24:02; [13],134 nM
AWLVHRQWF,Kd,HLA-A*23:01; [6],340 nM
same,Kd,HLA-A*24:02; [6],164 nM
LGFDVVAYF,Kd,HLA-B*15:01 [2]; source organism: Vaccinia virus Copenhagen,67.3 nM
EMVCFHEFL,Kd,HLA-A*29:02; [14],≥ 10000 nM
same,Kd,HLA-A*23:01; [14],1990 nM
same,Kd,HLA-A*24:02; [14],16900 nM
SYAQMWSLMY,Kd,HLA-A*30:02; source organism: Dengue virus 2 Peru/IQT2913/1996,≥ 69700 nM
VWLGFIAGL,Kd,HLA-A*29:02; [3],36.2 nM
same,Kd,HLA-A*30:02; [3],12 nM
same,Kd,HLA-A*26:01; [3],≥ 77900 nM
same,Kd,HLA-A*23:01; [3],7040 nM
same,Kd,HLA-A*24:02; [3],≥ 46900 nM
same,Kd,HLA-A*01:01; [3],≥ 78100 nM
LLLMRTTWAF,Kd,HLA-B*15:01 [2]; [11],1.24 nM
same,Kd,HLA-A*23:01; [11],694 nM
same,Kd,HLA-A*24:02; [11],292 nM
